In US20260226126A1 (ANWITA BIOSCIENCES, published 2026):

T1: His-tagged IL-2Rα (CD25) protein (human, UniProt P01589 22-240)
T1 construct: also called Human IL-2Rα
T1 sequence: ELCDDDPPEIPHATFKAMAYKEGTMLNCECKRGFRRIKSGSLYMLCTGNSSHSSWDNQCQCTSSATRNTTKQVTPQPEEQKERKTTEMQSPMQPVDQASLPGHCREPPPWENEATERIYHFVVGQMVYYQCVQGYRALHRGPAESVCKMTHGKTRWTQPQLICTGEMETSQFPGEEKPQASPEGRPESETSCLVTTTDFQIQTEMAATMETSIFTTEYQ

T2: His-tagged & Twin Strep-tagged human IL-2Rβ & IL-2Rγ heterodimer protein (human, UniProt P14784 27-239; P31785 23-262)
T2 construct: also called Human IL-2Rβγ; human IL-2Rβγ (His)
T2 sequence 1: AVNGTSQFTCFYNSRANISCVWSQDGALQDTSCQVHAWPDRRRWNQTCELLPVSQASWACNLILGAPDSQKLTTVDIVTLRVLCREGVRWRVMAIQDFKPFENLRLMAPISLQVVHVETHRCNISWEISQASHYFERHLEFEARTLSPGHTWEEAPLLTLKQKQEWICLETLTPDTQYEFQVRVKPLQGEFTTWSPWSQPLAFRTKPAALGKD
T2 sequence 2: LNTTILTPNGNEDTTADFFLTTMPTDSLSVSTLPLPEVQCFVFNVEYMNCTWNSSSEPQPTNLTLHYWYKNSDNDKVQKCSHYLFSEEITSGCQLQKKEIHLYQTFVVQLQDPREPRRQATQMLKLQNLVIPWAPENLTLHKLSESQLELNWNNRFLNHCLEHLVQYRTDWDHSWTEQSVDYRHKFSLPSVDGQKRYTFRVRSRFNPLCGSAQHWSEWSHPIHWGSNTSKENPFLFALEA

T3: CD122 (human, UniProt P14784 27-239)
T3 construct: also called IL-2Rβ; hIL-2 receptor
T3 sequence: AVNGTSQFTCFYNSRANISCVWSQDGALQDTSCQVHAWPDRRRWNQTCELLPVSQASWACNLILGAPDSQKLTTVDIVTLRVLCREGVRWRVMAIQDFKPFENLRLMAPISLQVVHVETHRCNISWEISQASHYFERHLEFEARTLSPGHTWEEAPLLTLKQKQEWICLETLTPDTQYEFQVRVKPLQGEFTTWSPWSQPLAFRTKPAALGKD

T4: AVITAG CD122/CD132 heterodimer (human, UniProt P14784 27-239; P31785 23-262)
T4 construct: also called IL-2Rβ/γ
T4 sequence 1: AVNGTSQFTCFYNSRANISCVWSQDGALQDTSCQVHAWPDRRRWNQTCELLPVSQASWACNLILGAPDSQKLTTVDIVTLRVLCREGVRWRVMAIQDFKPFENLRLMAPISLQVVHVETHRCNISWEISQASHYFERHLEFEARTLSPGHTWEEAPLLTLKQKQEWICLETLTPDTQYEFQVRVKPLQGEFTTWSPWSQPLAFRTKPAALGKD
T4 sequence 2: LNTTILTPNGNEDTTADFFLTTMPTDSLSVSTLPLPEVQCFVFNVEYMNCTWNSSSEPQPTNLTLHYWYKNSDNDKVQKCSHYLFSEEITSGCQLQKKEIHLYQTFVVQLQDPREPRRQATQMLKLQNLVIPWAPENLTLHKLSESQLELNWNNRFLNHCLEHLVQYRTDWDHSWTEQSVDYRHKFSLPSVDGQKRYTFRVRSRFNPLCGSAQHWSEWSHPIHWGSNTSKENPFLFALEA


Tests used:
[1] = molecular target: T1, His-tagged IL-2Rα (CD25) protein; experiment: BLI (OCTET RED96); His-tagged receptor captured on anti-penta-HIS (HIS1K) biosensor, serially diluted fusion protein A1 in solution
Text: (§1) Anti-PD-1/IL-2 fusion protein A1 was made by co-expression of SEQ ID NOs: 160 and 161 in CHO cells. OCTET® RED96 was used to study the interaction between anti-PD-1/IL-2 fusion protein A1 and human PD-1 or IL-2 receptors. For the binding study of the human PD-1, anti-human-Fc (AHC) biosensors were used to capture anti-PD-1/IL-2 fusion protein A1. The coated biosensors were associated with serially diluted His-tagged human PD-1 protein at predetermined concentrations. For the binding study of human IL-2 receptors, anti-penta-HIS (HIS1K) biosensors were used to capture human IL-2Rα or human IL-2Rβγ (His) proteins. The coated biosensors were associated with serially diluted anti-PD-1/IL-2 fusion protein A1 at predetermined concentrations.

His-tagged human PD-1 = molecular target: T5, His-tagged human PD-1 (human, UniProt Q15116 25-167, limits assumed); experiment: BLI (OCTET RED96); fusion protein A1 captured on anti-human-Fc (AHC) biosensor, serially diluted His-tagged human PD-1 in solution
T5 construct: also called His-tagged human PD-1 protein
Text: as §1

[2] = molecular target: T2, His-tagged & Twin Strep-tagged human …; experiment: BLI (OCTET RED96); His-tagged receptor heterodimer captured on anti-penta-HIS (HIS1K) biosensor, serially diluted fusion protein A1 in solution
Text: as §1

CD122 = molecular target: T3, CD122; experiment: BLI (OCTET RED96); receptor loaded on biosensor, IL-2 mutein in solution at 10 to 2,000 nM
Description: (§2) CD122 and AVITAG CD122/CD132 heterodimer were purchased from ACROBIOSYSTEMS, Inc. The protein samples were diluted in the OCTET® kinetic buffer. […] The association and dissociation sensorgram was fitted by global or local fitting using the OCTET® Data Analysis HT software.

[3] = molecular target: T4, AVITAG CD122/CD132 heterodimer; experiment: as above
Description: as §2

T5 sequence (Q15116 25-167 limits assumed): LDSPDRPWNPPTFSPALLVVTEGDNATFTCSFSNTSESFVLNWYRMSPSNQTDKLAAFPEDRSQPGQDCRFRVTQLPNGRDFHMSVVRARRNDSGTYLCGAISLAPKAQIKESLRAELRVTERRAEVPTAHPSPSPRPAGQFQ

Row | Binder | Kd (CD122) [nM] | Kd [3] [nM] | further results
1 | Anti-PD-1/IL-2 fusion protein A1 (Fc fusion, The two chains form a knobs-into-holes heterodimer) chain 1: QVQLLESGGGLVKPGGSLRLSCAASGRTYAMGWFRRAPGKESEFVAEIRWSSTFTDYADSVKGRFTISRDNAENSAYLQMNSLRAEDTAVYHCAAQTSQRGTLYDSYGQGTQVTVSSESKYGPPCPPCPAPEFLGGPSVFLFPPKPKDTLMISRTPEVTCVVVDVSQEDPEVQFNWYVDGVEVHNAKTKPREEQFNSTYRVVSVLTVLHQDWLNGKEYKCKVSNKGLPSSIEKTISKAKGQPREPQVCTLPPSQEEMTKNQVSLSCAVKGFYPSDIAVEWESNGQPENNYKTTPPVLDSDGSFFLVSRLTVDKSRWQEGNVFSCSVMHEALHNHYTQKSLSLSLGAGGGGSGGGGSGGGGSAPASSSTKKTQLQLEHLSLDLQMILNGIQSMEIDATTFKFYMPKKATELKHLQCLEEELKPLEEVLNLAQSKNFHLRPRDLISNINVIVLELKGSETTFMCEYADETATIVEFLNRWITFSESIISTLT chain 2: QVQLLESGGGLVKPGGSLRLSCAASGRTYAMGWFRRAPGKESEFVAEIRWSSTFTDYADSVKGRFTISRDNAENSAYLQMNSLRAEDTAVYHCAAQTSQRGTLYDSYGQGTQVTVSSESKYGPPCPPCPAPEFLGGPSVFLFPPKPKDTLMISRTPEVTCVVVDVSQEDPEVQFNWYVDGVEVHNAKTKPREEQFNSTYRVVSVLTVLHQDWLNGKEYKCKVSNKGLPSSIEKTISKAKGQPREPQVYTLPPCQEEMTKNQVSLWCLVKGFYPSDIAVEWESNGQPENNYKTTPPVLDSDGSFFLYSRLTVDKSRWQEGNVFSCSVMHEALHNHYTQKSLSLSLGK |  |  | binding result [1]: no binding; Kd (His-tagged human PD-1): 5 nM; Kd [2]: 12 nM
2 | IL-2-IL-15 Chimera 2 (T3A, C125S) (ligand, hIL-2 with N29-L40 replaced by an IL-15 hinge fragment-containing peptide; no fusion partner is stated) APASSSTKKTQLQLEHLLLDLQMILNGIQSMEIDATTFKFYMPKKATELKHLQCLEEELKPLEEVLNLAQSKNFHLRPRDLISNINVIVLELKGSETTFMCEYADETATIVEFLNRWITFSQSIISTLT | 104 | 11 | 
3 | IL-2-IL-15 Chimera 69 (T3A, L18S, C125S, Q126E) (ligand, no fusion partner is stated) APASSSTKKTQLQLEHLSLDLQMILNGIQSMEIDATTFKFYMPKKATELKHLQCLEEELKPLEEVLNLAQSKNFHLRPRDLISNINVIVLELKGSETTFMCEYADETATIVEFLNRWITFSESIISTLT |  | 322 | 
4 | IL-2-IL-15 Chimera 42 (E15K, N88A, C125S) (ligand, no fusion partner is stated) APTSSSTKKTQLQLKHLLLDLQMILNGIQSMEIDATTFKFYMPKKATELKHLQCLEEELKPLEEVLNLAQSKNFHLRPRDLISAINVIVLELKGSETTFMCEYADETATIVEFLNRWITFSQSIISTLT |  | 53 | 
5 | IL-2-IL-15 Chimera 68 (T3A, C125S, Q126T, S130R) (ligand, no fusion partner is stated) APASSSTKKTQLQLEHLLLDLQMILNGIQSMEIDATTFKFYMPKKATELKHLQCLEEELKPLEEVLNLAQSKNFHLRPRDLISNINVIVLELKGSETTFMCEYADETATIVEFLNRWITFSTSIIRTLT | 466 | 32 | 
6 | IL-2-IL-15 Chimera 46 (T3A, C125S, Q126E) (ligand, no fusion partner is stated) APASSSTKKTQLQLEHLLLDLQMILNGIQSMEIDATTFKFYMPKKATELKHLQCLEEELKPLEEVLNLAQSKNFHLRPRDLISNINVIVLELKGSETTFMCEYADETATIVEFLNRWITFSESIISTLT |  | 219 | 
7 | IL-2-IL-15 Chimera 58 (T3A, L18C, Q126E) (ligand, no fusion partner is stated) APASSSTKKTQLQLEHLCLDLQMILNGIQSMEIDATTFKFYMPKKATELKHLQCLEEELKPLEEVLNLAQSKNFHLRPRDLISNINVIVLELKGSETTFMCEYADETATIVEFLNRWITFCESIISTLT | 188 | 229 | 
8 | IL-2-IL-15 Chimera 64 (T3A, L18C, Q126S) (ligand, no fusion partner is stated) APASSSTKKTQLQLEHLCLDLQMILNGIQSMEIDATTFKFYMPKKATELKHLQCLEEELKPLEEVLNLAQSKNFHLRPRDLISNINVIVLELKGSETTFMCEYADETATIVEFLNRWITFCSSIISTLT |  | 382 | 

More lines, in order of falling Kd [3], values ahead:

Row | Kd (CD122) [nM] | Kd [3] [nM] | Binder | further results
9 | 650 | 30 | IL-2-IL-15 Chimera 54 (T3A, C125S, Q126T) (ligand, no fusion partner is stated) APASSSTKKTQLQLEHLLLDLQMILNGIQSMEIDATTFKFYMPKKATELKHLQCLEEELKPLEEVLNLAQSKNFHLRPRDLISNINVIVLELKGSETTFMCEYADETATIVEFLNRWITFSTSIISTLT | 
10 | 808 | 12 | IL-2-IL-15 Chimera 56 (T3A, C125S, S130R) (ligand, no fusion partner is stated) APASSSTKKTQLQLEHLLLDLQMILNGIQSMEIDATTFKFYMPKKATELKHLQCLEEELKPLEEVLNLAQSKNFHLRPRDLISNINVIVLELKGSETTFMCEYADETATIVEFLNRWITFSQSIIRTLT | 
11 |  | 12 | IL-2-IL-15 Chimera 44 (T3A, L18C) (ligand, no fusion partner is stated) APASSSTKKTQLQLEHLCLDLQMILNGIQSMEIDATTFKFYMPKKATELKHLQCLEEELKPLEEVLNLAQSKNFHLRPRDLISNINVIVLELKGSETTFMCEYADETATIVEFLNRWITFCQSIISTLT | 
12 | 550 | 6.8 | hIL-2 Mutein (T3A, F42A, Y45A, L72G, C125S) (ligand, no fusion partner is stated) APASSSTKKTQLQLEHLLLDLQMILNGINNYKNPKLTRMLTAKFAMPKKATELKHLQCLEEELKPLEEVLNGAQSKNFHLRPRDLISNINVIVLELKGSETTFMCEYADETATIVEFLNRWITFSQSIISTLT | 
13 |  | 3.5 | IL-2-IL-15 Chimera 29 (I92A, C125S) (ligand, no fusion partner is stated) APTSSSTKKTQLQLEHLLLDLQMILNGIQSMEIDATTFKFYMPKKATELKHLQCLEEELKPLEEVLNLAQSKNFHLRPRDLISNINVAVLELKGSETTFMCEYADETATIVEFLNRWITFSQSIISTLT | 
14 |  | 1 | hIL-2 Mutein (T3A, R38E, F42A, K76E, C125S) (ligand, no fusion partner is stated) APASSSTKKTQLQLEHLLLDLQMILNGINNYKNPKLTEMLTAKFYMPKKATELKHLQCLEEELKPLEEVLNLAQSENFHLRPRDLISNINVIVLELKGSETTFMCEYADETATIVEFLNRWITFSQSIISTLT | 
